According to article PMC11039692, “SRY-Box transcription factor 9 triggers YAP nuclear entry via direct interaction in tumors” (Signal Transduction and Targeted Therapy, 2024):

System: FLAG-YAP
Experiment: In vitro protein pull-down assay
Type: binding
Details: recombinant GST-SOX9 20 μM and FLAG-YAP 20 μM, FLAG beads, overnight at 4 °C
Description: FLAG-YAP protein (20 μM) purified from SF9 was incubated with 20 μM GST-SOX9 protein (Abcam, ab131911), GST protein, or blank control in the presence of FLAG beads (Sigma-Aldrich, A2220) overnight at 4 °C. Following this, the beads were washed two times in binding and wash buffer (20 mM Tris [pH 8.0], 150 mM NaCl, 0.5% NP40, 0.5% TritonX-100, 1 mM DTT, and 10% glycerol), and one wash with high salt buffer (20 mM Tris [pH 8.0], 250 mM NaCl, 0.5% NP40, 0.5% TritonX-100, 1 mM DTT, and 10% glycerol). The slurry was boiled with SDS buffer and then subjected to immunoblot.

B1: SOX9: recombinant GST-SOX9 protein (Abcam, ab131911) (protein)
chain: MNLLDPFMKMTDEQEKGLSGAPSPTMSEDSAGSPCPSGSGSDTENTRPQENTFPKGEPDLKKESEEDKFPVCIREAVSQVLKGYDWTLVPMPVRVNGSSKNKPHVKRPMNAFMVWAQAARRKLADQYPHLHNAELSKTLGKLWRLLNESEKRPFVEEAERLRVQHKKDHPDYKYQPRRRKSVKNGQAEAEEATEQTHISPNAIFKALQADSPHSSSGMSEVHSPGEHSGQSQGPPTPPTTPKTDVQPGKADLKREGRPLPEGGRQPPIDFRDVDIGELSSDVISNIETFDVNEFDQYLPPNGHPGVPATHGQVTYTGSYGISSTAATPASAGHVWMSKQQAPPPPPQQPPQAPPAPQAPPQPQAAPPQQPAAPPQQPQAHTLTTLSSEPGQSQRTHIKTEQLSPSHYSEQQQHSPQQIAYSPFNLPHYSPSYPPITRSQYDYTDHQNSSSYYSHAAGQGTGLYSTFTYMNPAQRPMYTPIADTSGVPSIPQTHSPQHWEQPVYTQLTRP
direct interaction with YAP (pull-down): demonstrated the direct interaction between SOX9 and YAP
